Source: patent US12258384B2, “Fusion albumin nanoparticle and application thereof” (Jiangnan University, priority 2019, dated 2025)

Key:
[1] = Loading of paclitaxel with recombinant fusion protein (pH response self-assembly), drug loading rate; assay type: physicochemical; conditions: 1 mg/ml protein, mixed at pH 5.5 with 10 mg/mL paclitaxel solution, then pH 7.4
Method: (§1) Albumin fusion protein powder freeze-dried by a freeze dryer was dissolved in a PBS buffer solution to prepare a 1 mg/ml solution, the pH was adjusted to 5.5 with a 1 mM HCl solution, after a 10 mg/mL paclitaxel solution was added, the pH was adjusted to 7.4 with a 1 mM NaOH solution, centrifugation was performed at 10000 rpm for 20 minutes, an obtained precipitate was uniformly mixed with ultrapure water and then centrifuged at 1000 rpm for 20 minutes, and the steps above were repeated 3 times to obtain a paclitaxel-loaded fusion protein nanoparticle.
A final drug loading rate was directly affected by a mixing ratio of albumin to a drug (for example, paclitaxel): Fusion albumin powder freeze-dried by a freeze dryer was dissolved in a PBS buffer solution to prepare a 1 mg/ml solution, the pH was adjusted to 5.5 with a 1 mM HCl solution, after a drug solution with a concentration of 5 mg/ml, 8 mg/ml, 12 mg/mL and 15 mg/ml was separately added, the pH was adjusted to 7.4 with a 1 mM NaOH solution, centrifugation was performed at 10000 rpm for 20 minutes, an obtained precipitate was uniformly mixed with ultrapure water and then centrifuged at 1000 rpm for 20 minutes, and the steps above were repeated 3 times to obtain a paclitaxel-loaded fusion protein nanoparticle. […]

[2] = Loading of docetaxel with recombinant fusion protein, drug loading rate; assay type: physicochemical; conditions: 1 mg/mL protein, mixed at pH 5.5 with 10 mg/ml docetaxel solution, then pH 7.4
Method: as §1, with “mg/mL” for “mg/ml”, “mg/ml docetaxel” for “mg/mL paclitaxel”, “a” for “a paclitaxel-loaded”

Substance: RH: albumin fusion protein 3RGD-HSA, without His fusion
- drug loading rate (paclitaxel) [1]: 6.38%
- drug loading rate (docetaxel) [2]: 7.08%
